The DeepSol protein solubility set

assay: soluble on expression in E. coli; label from the status in PepcDB or PDB records

Question: With “MGSDKIHHHHHHMLTCNGSKTFQTFIKAVTDLINSNLLEDQMVCGIEKLLEELLEKKTWLPLEKQKANSAQYARHLLYEDPLNRFEVLALVWKDGQSTPLHDHDGTWGVEGVFTGRIMVQNFIQTKQLENSLVYLTHTGNLYLGEGETDKVIPPADCHILEIDDNESVVTIHVYGKRLEKFKVYVPTKEKNVYTCETKYIRYNS” as the sequence, how does the “soluble on expression in E. coli” value read?
Answer: not soluble

Question: Which “soluble on expression in E. coli” value does the source give for “MTTKLVRPSDQATSNQVPVPGALVPHLDQCALLLDIDGTLLDLAPTPREVWVPPELEQTLTNLLVRTSGALALVSGRSINDIDLIFAPMRLPAVGGHGAEMRLSGEGEAIATHAPPLDSELKSRLAAIARISPGILLEDKGYSLALHYRLAPHTEKAIYEAVAAIRAENPEAPLEVLPGKSVCEIKHSGFTKATGVLELMTRAPFKGRRPIFIGDDVTDETVFAIMPELRGLAFSVGRYSELTSGHFDEPRDVRNWLARLLEPANLEHHHHHH” here?
Answer: soluble

Question: For “MRQALPLVTRQGDRIAIVSGLRTPFARQATAFHGIPAVDLGKMVVGELLARSEIPADAIEQLVFGQVVQMPEAPNIAREIVLGTGMNVHTDAYSVSRACATSFQAVANVAESLMAGTIRAGIAGGADSSSVLPIGVSKALARVLVDVNKARTTRQRLTLFSRLRLRDLLPVPPAVAEYSTGLRMGDTAEQMAKTYGITREQQDALAHRSHQRAAQAWAEGKLAEEVMTTYVPPYKNPFAEDNNIRGASTLADYAKLRPAFDRKHGSVTAANSTPLTDGAAAVILMTESRAKELGLRPLGYLRTYAFTAIDVWQDMLLGPAWSTPLALERAGLTMADLTLFDMHEAFAAQTLANLQLLGSERFAREVLGCAQATGEVDDAKFNVLGGSIAYGHPFAATGARMITQTLHELRRRGGGFGLVTACAAGGLGAAMVLEAE”, which “soluble on expression in E. coli” value is on record?
Answer: not soluble

Question: Which “soluble on expression in E. coli” value does the source give for “MAKLRVGIVFGGKSAEHEVSLQSAKNIVDAIDKTRFDVVLLGIDKAGQWHVNDAENYLQNADDPAHIALRPSAISLAQVPGKHQHQLINAQNGQPLPTVDVIFPIVHGTLGEDGSLQGMLRVANLPFVGSDVLSSAACMDKDVAKRLLRDAGLNIAPFITLTRTNRHAFSFAEVESRLGLPLFVKPANQGSSVGVSKVANEAQYQQAVALAFEFDHKVVVEQGIKGREIECAVLGNDNPQASTCGEIVLNSEFYAYDTKYIDDNGAQVVVPAQIPSEVNDKIRAIAIQAYQTLGCAGMARVDVFLTADNEVVINEINTLPGFTNISMYPKLWQASGLGYTDLISRLIELALERHTANNALKTTM” here?
Answer: soluble

Question: Which “soluble on expression in E. coli” value does the source give for “MGSDKIHHHHHHMNSIQLKAVSFSREQPLFEKTNLAIPQGTFSLLIGDSGSGKSTLLRLIAGFAPLDYQGEILIEGMERRQLSTREKAQKIGMLFQNPSQQFTMKTLERELIFALENLGIPPEEMNRKIQTALQLVQTQTLFTRELATLSGGEKQKAALTVLLAMNPDILLLDEPFASIDPTSRKQFIQILARLHQAGKTILVCDHDFSDYADVVDQVVTLKNGQFEKQPLTFIKTKPQTFQLTTSVVKQPMLQLKNFRLSQGKRVLLEEKEALLFKGITTLTGPNGAGKSTLLKAIVQRQKYQGKMFLAGRRLRASKKLYQHMTLAVQQANRQFVTLTLREELLFGQNMTAEKRRKQEEALTFLGLKEKLEHSVFQLSEGQKKMVQLISLLSLDLDCLLLDEPFAGLDERACNYFVEWIKEKSAQQDFLIVTHRLEPLSGVSNYRIELLQQQLIIWQEGTTCK” here?
Answer: not soluble

Question: For “MISKTSILLLGFACAAVGANYIESAIFKFDDSCEPLEEPRKPEVAKCYEPSTSLPKTLEEYRAMGYDWGEFVHDDKADQAPEGLDEVFTYPMVPFIGMSLLASKKF”, which “soluble on expression in E. coli” value is on record?
Answer: not soluble

Question: With “MEHDERTHVPVELRAAGVVLLNERGDILLVQEKGIPGHPEKAGLWHIPSGAVEDGENPQDAAVREACEETGLRVRPVKFLGAYLGRFPDGVLILRHVWLAEPEPGQTLAPAFTDEIAEASFVSREDFAQLYAAGQIRMYQTKLFYADALREKGFPALPV” as the sequence, how does the “soluble on expression in E. coli” value read?
Answer: soluble

Question: Which “soluble on expression in E. coli” value does the source give for “GANPTTAETLDATRRVDDATVAIRCAINNLIVELIRGTGSYNRSSFESSSGLVWTSGPAGEGSYSITTPSQFVFLSSAWADPIELINLCTNALGNQFQTQQARTVVQRQFSEVWKPSPQVTVRFPDSDFKVYRYNAVLDPLVTALLGAFDTRNRIIEVENQ” here?
Answer: soluble

Question: Which “soluble on expression in E. coli” value does the source give for “MGSDKIHHHHHHMGDAGGAGGNNMNIKQAKNEVKNTVKAYLSKDAHGEYVIPQIRQRPMLLIGPPGVGKTQIMEQIARECKIGLVAYTITHHTRQSAVGLPFIKEREYDGKSYSVTEYTMSEIIASVYEKMEATGLKEGILFIDEINCVSETLAPTMLQFLQCKTFGNQAVPKGWVIVAAGNPPEYNKSVRDFDMVTLDRVRYISIEADYQVWKEYARDVHIHDALLSYLELHPNNFYRVETDVDGMNFVTARGWEDLSSLLKVYEAGELAVTEEVIGEFIHHPDIAEDVYAYLEIYRKYNEDYGISDILSGNVKKSVYKRVFDADFDERITVVNLLLSGLTVVFSDVARERKMVQLWYEFLKEYRKSQRSTEEQHALYNSAVEQFSKNMEILKESSLILPKEYYIRQDVLKHIKGDFDTVMDDFTEESEKLSTMEDAAGEKLNHAFDFVEDVFSDDQEMLVFVTELTITPEISSFLAENECEKFDIYNEKLMVGSNRTRLLKELER” here?
Answer: not soluble

Question: For “PEPGKKPVSAFSKKPRSVEVAAGSPAVFEAETERAGVKVRWQRGGSDISASNKYGLATEGTRHTLTVREVGPADQGSYAVIAGSSKVKFDLKVIE”, which “soluble on expression in E. coli” value is on record?
Answer: soluble

Question: For “MGSDKIHHHHHHMISDLESLGIDFKDEGENYVPKKDYSGNLVAKYVFDSNGISTDNITLKDLSGHGYDGTMSGVSIKDDSELGKCAYFNGSASVNFNNQIIPKGNKTIIITFKKDSGTQSNGQYEFLIEQGSGQGESITSWSIRFDSYKTACLNNLYFCNDDSKINMLNSHPAVFNVCDGKKHTAIFNYYDNKTNNTYCDSLKAHVCSFDFNGGEYRTADNSIIGQKYVGYIKSIEIYDDVVEFNSISTGTSLNKNIDQLIIGQTDNLVATIMPEDVTDKSVIWSSSDPSIVAVDENGKITALKVGEVSITVTTNDGSNLSQTCMVAVIDTTIPDKACLNISMTNGQVKQYYVGMDLVNKFISWYKLRSAGSEEPFYEFDITQLSEPGILRHDYVVFNKISSFTVDDYVK”, which “soluble on expression in E. coli” value is on record?
Answer: not soluble

Question: For “MIDHLSRAVISDPEQNLAIEQKESDHILPDSKMTPLRFRKRTLHETKIRTHSTLTENVLSHKLQFDGRIVSRTNVLPFIQKSIYSHQCGRRKGKQYRLGDFYVGATLTFLSSDHLSLPESIKENTLLKLRITNIDQIALDSLKTASMEQEDDIIIQETNDRLVFKAIQDVLKEKLHKRGVRILTGLGKYFQQLDKEGNGLLDKADFKQALKVFHLEVSEKDFESAWLILNDNGNGKVDYGEFKRGIIGEMNEYRKSYVRKAFMKLDFNKSGSVPIINIRKCYCAKKHSQVISG”, which “soluble on expression in E. coli” value is on record?
Answer: soluble

Question: Which “soluble on expression in E. coli” value does the source give for “MAHHHHHHMLSGAEELISDLFRRTSTTSNAVEFILSSNSAAYHDVMQRICNSNQPQLVKGILRTAQSLLPTELFQVFGKSVVPVLLLFAPAVLRRVGELLAAPKETPLSTCGEWDAFTSFITGIHCKLLASPECRATNVRSLPPPPVAARHTPSWSKVFHGEENVSEGVPPPQPSTDCEVNVTAIGTDNYGSLLCTIVCGLSHLLACVATPPCVIGGPGLTTLCNEVMRLLSSTPVFCYASKDANLQIACVSLLLSVLNLGKAVQGCVASSFMPTMRRWFDLTLYSANAVCIQLLFPYILHARAHR” here?
Answer: not soluble

Question: Which “soluble on expression in E. coli” value does the source give for “MAHHHHHHMLRIYDPKETVAFYEKNFGMINIHTYHFDEYNFSLYFLITPPYDEEERKKIPPPNTIESEQYLWNLKTVCLELTHNHNSTEKLSNGNNDNDRGFGHIAFNCQDVTQFCDYLFKEKKVNFHKLPHETKMKSIGFALDPNDYWIEIVKRSSEVKWKDKEGIANFSQTMIRVKNPEKSLYFYLHILGMKLVHIKHASDFSLYFLKSPYVEGNKGGDISTKEKPEGEQNLPPYNFEELKKAYQSDEDYENLKTSWEPVLELTHNHGTENDDQFAYHNGNTEPRGFGHIGFLVDDLANYCQELEKLGIPFKKKIHEGQMNNIAFVYDPDNYLVELIQRGTTFGRN” here?
Answer: not soluble

Question: For “MGSDKIHHHHHHMSRTADSLPSTRQRRKEARPQELLDAALDLFVEKGFAATRSEEVAARAGVSKGTLYLYYPSKEELLKAVIRENISQEIAEGEDIVRGFDGPTAELLAHLMAEWWRRIGETRASGICKLIISEVRNFPDIAQFYLDEVVLPAERMIGGVVQRGIDRGEFRPVAVDDVVHALMAPMLFLMLHKHSMGACPNLDRRLDAPRVVAMQVDLVLNGLVPRTAPRGGPRKAKA”, which “soluble on expression in E. coli” value is on record?
Answer: not soluble

Question: With “MRMRHKPWWDDFLAENADIAISNPADYKGKWNTVFGNDNPIHIEVGTGKGQFISGMAKQNPDINYIGIELFKSVIVTAVQKVKDSEAQNVKLLNIDADTLTDVFEPGEVKRVYLNFSDPWPKKRHEKRRLTYSHFLKKYEEVMGKGGSIHFKTDNRGLFEYSLKSFSEYGLLLTYVSLDLHNSNLEGNIMTEYEEKFSALGQPIYRAEVEWRT” as the sequence, how does the “soluble on expression in E. coli” value read?
Answer: soluble

Question: For “MKIAVVAANGKAGQLITKEAVERSLDVTAIVRSENKTVAHQVIQKDLFDLTKEDIAPFDVIVDAFGQMNKDKLNEHSQSLEHLSNLVSDSQKRLIIIGGAGSLYVDKAHTERLIDSPDMPEEVKPISMAQVKTFEEIKERDDVQWTFVCPAPDFQFDGEKTGAYKVSDDEVIGTHVSYADFAKAIVDEAMNPEHIQSRFAVFAKLEHHHHHH”, which “soluble on expression in E. coli” value is on record?
Answer: soluble

Question: With “MSLIKVIDAHVHYHIYARKIPEHCKEFLENVEGTRMTLKNDNVEIEKILLVPSHPCHSEDCYDGFYIDYEERKRNPDLYMQWGEVNPLKCDVKRELERQYSLGIIGIKLHPVHHTFKPNAYREEEGGLKQLLYIYEFAEDHGLPILIHTGTSIGVGSRNKYADPIYADDIAKDFPKLRIILAHAGRPLWYNTAFHMARFTQNIFLEISSIPPKNILKVLPRIHEISDKVIYGSDFPAFKGQDLAEYAYQVYNVLKNEKIMRDNAKRILKISEGHHHHHH” as the sequence, how does the “soluble on expression in E. coli” value read?
Answer: not soluble

Question: With “MAKALEQPFDVANIPGPKMATLLEKGKPVANMIKKAKRPLLIVGPDMTDEMFERVKKFVEKDITVVATGSAITRFIDAGLGEKVNYAVLHELTQFLLDPDWKGFDGQGNYDLVLMLGSIYYHGSQMLAAIKNFAPHIRALAIDRYYHPNADMSFGNLWKKEEDYLKLLDEILAEL” as the sequence, how does the “soluble on expression in E. coli” value read?
Answer: soluble

Question: With “MFKGIVQGAGIIKKISKNDDTQRHGITFPKDILESVEKGTVMLVNGCSLTVVRISGDVVYFDIDQAINTTTFRELEVGNKVNLEVRPEFGSLLGKGALTGNIKGVATVDNITEEEDRLKVYIKIPKDLIENILSEDHIGINGVSHSIEEISDDIIFINYPKNLSITTNLGTLEKGSDVNVETLNVSNEWD” as the sequence, how does the “soluble on expression in E. coli” value read?
Answer: soluble

Question: For “KYNMGNANYRIQKELHNFLNNPPINCTLDVHPNNIRIWIVKYVGLENTIYANEVYKLKIIFPDDYPLKPPIVYFLQKPPKHTHVYSNGDICLSLLGDDYNPSLSISGLVLSIISMLSSAKEKKLP”, which “soluble on expression in E. coli” value is on record?
Answer: soluble

Question: Which “soluble on expression in E. coli” value does the source give for “MSLGSQGSGLEQSSFQWSPSGRRTGSLYCRVGIGFHLQIYPDGKVNGSHEANMLSVLEIFAVSQGIVGIRGVFSNKFLAMSKKGKLHASAKFTDDCKFRERFQENSYNTYASAIHRTEKTGREWYVALNKRGKAKRGCSPRVKPQHISTHFLPRFKQSEQPELSFTVTVPEKEGHHHHHH” here?
Answer: not soluble

Question: With “MHGNPMNIPPVSIAAAKAALIEQYADPTLRRRASMLWGTRGVGKSSIVRQVAAHYRVPLIDLRLTTIEPVDIRGAIYADENLAKTVWFPPEFLPSRDQPEGVLFLDELTAADQRLQISAYSLILDRRVGNYHLPDGWQVVAAGNASFHGAISHDMGTALADRMFHFNVQTAIDAFLNHAITQEFAPEVMAYLKIRPDKLDDTQAQLAGDHLIGASPRGWEDISNVLKSGLSDHAKRLFVQGRIGAANAAEFFGVLREIQAGTDVLKLLAARPGPETAALLPKSLDALYGMLYGLLAASTDKQTMARALEIIEQLPDIRSAAPLPIREAQTLAMELLMQRGLENGLESAILDSPAYASYAGRRQLEASDALEHHHHHH” as the sequence, how does the “soluble on expression in E. coli” value read?
Answer: not soluble
